B1: GalT(Y289L): β-(1,4)-galactosyltransferase mutant enzyme Bos taurus GalT-Y289L (SEQ ID NO: 1), prior-art comparator (protein)
chain: MKFREPLLGGSAAMPGASLQRACRLLVAVCALHLGVTLVYYLAGRDLRRLPQLVGVHPPLQGSSHGAAAIGQPSGELRLRGVAPPPPLQNSSKPRSRAPSNLDAYSHPGPGPGPGSNLTSAPVPSTTTRSLTACPEESPLLVGPMLIEFNIPVDLKLIEQQNPKVKLGGRYTPMDCISPHKVAIIILFRNRQEHLKYWLYYLHPMVQRQQLDYGIYVINQAGESMFNRAKLLNVGFKEALKDYDYNCFVFSDVDLIPMNDHNTYRCFSQPRHISVAMDKFGFSLPYVQLFGGVSALSKQQFLSINGFPNNYWGWGGEDDDIYNRLAFRGMSVSRPNAVIGKCRMIRHSRDKKNEPNPQRFDRIAHTKETMLSDGLNSLTYMVLEVQRYPLYTKITVDIGTPS
modifications: Bos Taurus GalT Y289L mutant

Assay: Coupled glycosyltransferase assay (R&D Systems Glycosyltransferase Activity Kit, malachite green, 620 nm): transfer of F2-GalNAz to GlcNAc
Type: biochemical
Parameters: Data from the determination of the specific activity: unit not given here
Conditions: for Data from the determination of the specific activity: GlcNAc 20 mM, UDP-F2-GalNAz 500 μM, 20 min, room temperature, plate read at 620 nm; for specific activity: UDP-F2-GalNAz 500 μM to GlcNAc 20 mM, 5 mM MgCl2 and 5 mM MnCl2, pH 7.5, linear regression; for transferase activity compared with GalT(Y289L): transfer of F2-GalNAz from UDP-F2-GalNAz (18) to GlcNAc, FIG. 7 / FIG. 8
Excerpt: In brief, the glycosyltransferase kit determines the activity of a particular glycosyltransferase by means of a coupled assay that detects the release of liberated UDP upon transfer of the donor sugar (from the sugar-UDP nucleotide) to an acceptor sugar. In more detail, the UDP that is liberated upon transfer of sugar is hydrolyzed by a particular enzyme (CD39L3/rectonucleoside triphosphate diphosphohydrolase-3, also known as NTPDase-3) thereby generating UMP and one equivalent of phosphate (Pi). The latter phosphate in turn is detected by malachite green, which is also added to the mixture. A green color develops in proportion to the amount of inorganic phosphate released and the absorbance of the color at 620 nm is measured as a direct measure of the activity of the glycosyltransferase. In the present case, transfer of F2-GalNAz from the UDP-substrate to GlcNAc on the protein is accompanied by release of UDP, which is hydrolyzed by CD39L3 and the generated phosphate. Preferably, the derived or wild type β-(1,4)-GalNAcT enzyme used in the process according to the invention has at least 30%, 33%, 50%, 75%, 100%, 150%, 200%, or more preferably at least 300% of the UDP-F2-GalNAz transfer activity as compared to the UDP-F2-GalNAz transfer activity of the β-(1,4)-galactosyltransferase mutant enzyme Bos taurus GalT-Y289L (SEQ ID NO: 1), wherein the transfer activity is assessed using the R&D Systems Glycosyltransferase Activity Kit and applying the conditions as indicated in detail in Example 18 and using equal amounts of the enzyme to be tested and β-(1,4)-galactosyltransferase mutant enzyme Bos taurus GalT-Y289L (SEQ ID NO: 1).
Specific activity of enzymes was determined by a coupled glycosyltransferase procedure as described by Wu et al. in Glycobiology 2010, 21, 723-733, incorporated by reference, and commercially available as a kit from R&D system.
In short, a glycosyltransferase reaction was carried out in 50 μL of reaction buffer (25 mM Tris, 150 mM NaCl, 5 mM MgCl2 and 5 mM MnCl2, pH 7.5) in a 96-well plate at room temperature for 20 min. To determine the kinetic parameters of a glycosyltransferase, multiple reactions with varying amounts of the enzyme were carried out simultaneously (0.01, 0.02, 0.04, 0.06, 0.08, 0.10 and 0.12 μg of enzyme) in the presence of fixed amounts of all other components (GlcNAc: 20 mM, UDP-F2-GalNAz: 500 μM), including the coupling phosphatase 1 (ENTPD3/CD39L3) (2.5 μL of 20 ng/μL solution). A well containing all components except for the enzyme served as a blank control. The reactions were initiated by adding the substrates and phosphatase to the enzyme and terminated by the addition of 30 μL of Malachite reagent A and 100 μL of water to each well. The color was developed by the addition of 30 μL of Malachite reagent B to each well followed by gentle mixing and incubation at room temperature for 20 min. Following color development, the plate was read at 620 nm with a multi-well plate reader. A phosphate standard curve was also performed to determine the conversion factor between the absorbance and the inorganic phosphate contents. Preparation of UDP-F2-GalNAz is described in Example 13.
The specific activity of the GalNAcTs described herein were compared to GalT(Y289L), an enzyme known to transfer UDP-GalNAz as previously disclosed in WO 2007/095506 and WO 2008/029281 (both Invitrogen Corporation).
A graph depicting the conversion (in pmol/min/m) plotted against the amount of enzyme is shown in FIG. 7 (for Table 1) and FIG. 8 (for Table 2). From these plots specific activities were calculated by linear regression. […]

| Molecule | Data from the determination of the specific activity (0.01 μg enzyme) | Data from the determination of the specific activity (0.02 μg enzyme) | Data from the determination of the specific activity (0.04 μg enzyme) | Data from the determination of the specific activity (0.06 μg enzyme) | Data from the determination of the specific activity (0.08 μg enzyme) | Data from the determination of the specific activity (0.1 μg enzyme) | Data from the determination of the specific activity (0.12 μg enzyme) | specific activity | transferase activity compared with GalT(Y289L) |
| --- | --- | --- | --- | --- | --- | --- | --- | --- | --- |
| CeGalNAcT(I257A): truncated C. elegans GalNAcT mutant, isoleucine 257 to alanine, SEQ ID NO: 12 | 0.009 | 0.032 | 0.049 | 0.078 | 0.097 | 0.119 | 0.152 | 240 pmol/min/µg | significantly higher |
| CeGalNAcT(I257L): truncated C. elegans GalNAcT mutant, isoleucine 257 to leucine, SEQ ID NO: 10 | 0.02 | 0.038 | 0.081 | 0.136 | 0.153 | 0.205 | 0.245 | 381 pmol/min/µg | significantly higher |
| CeGalNAcT-His: CeGalNAcT(30-383) with C-terminal His6-tag, SEQ ID NO: 14 | 0.024 | 0.044 | 0.129 | 0.161 | 0.191 | 0.226 | 0.285 | 332 pmol/min/µg | significantly higher |
| B1 | 0.005 | 0.011 | 0.013 | 0.02 | 0.027 | 0.034 | 0.039 | 44 pmol/min/µg | – |

From patent US11046988B2, “Process for the modification of a glycoprotein using a β-(1,4)-N-acetylgalactosaminyl transferase or a mutant thereof” (Synaffix B.V., priority 2014, dated 2021)
